Assay results taken from patent US9187525B2, “Methods of treating ophthalmic diseases using NPR-B agonists” (Shire Orphan Therapies GmbH, dated 2015).
Numbered stars: 1 amine (or outer) side, 2 acyl side, 3 side chain; on linkers, the order of the positions; unused ones are H or OH. Square brackets hold non-standard residues; d marks the D form. Ends that are not written are not given here. * marks the point of attachment. ξ: configuration not given here. Apc(Ae) = 4-amino-1-(2-amino-ethyl)-piperidine-4-carboxylic acid, O=C(C1(N[*:1])CCN(CCN[*:3])CC1)[*:2]; Apc(Et) = 4-amino-1-ethyl-piperidine-4-carboxylic acid, CCN1CCC(N[*:1])(C(=O)[*:2])CC1; Apc(Me) = 4-amino-1-methyl-piperidine-4-carboxylic acid, CN1CCC(N[*:1])(C(=O)[*:2])CC1; Pro(trans-4-NH2) = O=C([C@@H]1C[C@@H](N[*:3])CN1[*:1])[*:2]; Sni = (S)-nipecotic acid, O=C([C@H]1CCCN([*:1])C1)[*:2]; Eat = 2,3-dihydro-1H-indole-2-carboxylic acid; Tyr(3-I) = N[C@@H](Cc1ccc(O)c(I)c1)C(=O)O; Oic = O=C(O)[C@@H]1C[C@@H]2CCCC[C@@H]2N1; NMeR = CN[C@@H](CCCNC(=N)N)C(=O)O; dDap(Me2) = CN(C)C[C@@H](N)C(=O)O; Hyp = O=C(O)[C@@H]1C[C@@H](O)CN1; Tic = O=C(O)[C@@H]1Cc2ccccc2CN1; Gly(cPr) = N[C@H](C(=O)O)C1CC1; Aoc(2) = CCCCCC[C@H](N)C(=O)O; NMeL = CN[C@@H](CC(C)C)C(=O)O; Chg = N[C@H](C(=O)O)C1CCCCC1; Tle = CC(C)(C)[C@H](N)C(=O)O; ξαMeL = CC(C)CC(C)(N)C(=O)O; Octanoyl = CCCCCCCC(=O)*; Thz = O=C(O)[C@@H]1CSCN1; Aze = O=C(O)[C@@H]1CCN1; Deg = CCC(N)(CC)C(=O)O; Nbt = 4-butyl-thiazole; Oct = not defined here; Aib = CC(C)(N)C(=O)O; GABA = NCCCC(=O)O

T1: natriuretic peptide receptor-B (human)
T1 chain: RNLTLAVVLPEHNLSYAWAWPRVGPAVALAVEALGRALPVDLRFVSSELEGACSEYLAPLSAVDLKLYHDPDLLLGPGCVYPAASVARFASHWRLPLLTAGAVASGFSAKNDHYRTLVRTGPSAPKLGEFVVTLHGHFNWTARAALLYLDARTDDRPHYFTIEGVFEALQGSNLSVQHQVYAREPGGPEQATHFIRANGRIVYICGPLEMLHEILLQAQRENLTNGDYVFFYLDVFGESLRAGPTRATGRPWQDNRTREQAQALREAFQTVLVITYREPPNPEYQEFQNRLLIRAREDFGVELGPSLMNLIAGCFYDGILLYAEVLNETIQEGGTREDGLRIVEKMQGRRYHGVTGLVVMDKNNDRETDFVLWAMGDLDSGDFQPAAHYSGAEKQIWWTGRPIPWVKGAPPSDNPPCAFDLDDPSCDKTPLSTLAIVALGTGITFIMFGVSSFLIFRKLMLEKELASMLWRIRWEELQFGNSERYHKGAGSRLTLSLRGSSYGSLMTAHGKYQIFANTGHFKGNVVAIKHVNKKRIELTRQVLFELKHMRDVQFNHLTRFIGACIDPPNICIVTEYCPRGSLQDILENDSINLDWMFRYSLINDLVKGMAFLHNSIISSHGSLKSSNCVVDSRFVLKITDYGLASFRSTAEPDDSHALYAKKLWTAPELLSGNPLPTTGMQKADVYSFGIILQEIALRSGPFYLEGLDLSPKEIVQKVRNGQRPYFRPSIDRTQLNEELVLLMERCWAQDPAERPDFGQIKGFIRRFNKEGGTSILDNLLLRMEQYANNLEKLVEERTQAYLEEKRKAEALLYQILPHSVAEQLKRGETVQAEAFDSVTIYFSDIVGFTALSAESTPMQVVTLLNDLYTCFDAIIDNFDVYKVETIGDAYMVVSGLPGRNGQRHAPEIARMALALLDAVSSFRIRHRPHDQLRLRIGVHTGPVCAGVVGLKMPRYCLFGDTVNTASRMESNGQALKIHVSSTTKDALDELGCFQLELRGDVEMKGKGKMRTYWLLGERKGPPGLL

B1: JAL-0652 (peptide)
peptide: XXFGLKLDRI
HELM: PEPTIDE1{[CCCCCC(=O)[*:2]].[O=C(Cn1cccc(N[*:1])c1=O)[*:2]].F.G.L.K.L.D.R.I.[am]}$$$$V2.0
SMILES: CCCCCC(=O)Nc1cccn(CC(=O)N[C@@H](Cc2ccccc2)C(=O)NCC(=O)N[C@@H](CC(C)C)C(=O)N[C@@H](CCCCN)C(=O)N[C@@H](CC(C)C)C(=O)N[C@@H](CC(=O)O)C(=O)N[C@@H](CCCNC(=N)N)C(=O)N[C@H](C(N)=O)[C@@H](C)CC)c1=O
B2: JAL-0650 (peptide)
peptide: XXFGLKLDRI
HELM: PEPTIDE1{[CCCCCC(=O)[*:2]].[O=C(Cc1ccc(N[*:1])cc1)[*:2]].F.G.L.K.L.D.R.I.[am]}$$$$V2.0
SMILES: CCCCCC(=O)Nc1ccc(CC(=O)N[C@@H](Cc2ccccc2)C(=O)NCC(=O)N[C@@H](CC(C)C)C(=O)N[C@@H](CCCCN)C(=O)N[C@@H](CC(C)C)C(=O)N[C@@H](CC(=O)O)C(=O)N[C@@H](CCCNC(=N)N)C(=O)N[C@H](C(N)=O)[C@@H](C)CC)cc1
B3: JAL-1429 (peptide)
peptide: [Oct][Sni]F[dDap(Me2)]L[Hyp][NMeL]DRI-NH2
modifications: reading uncertain; also: printed as Oct-Sni-Phe-dap(Me2)-Leu-Hyp-Nml-Asp-Arg-Ile-NH2
B4: JAL-0651 (peptide)
peptide: XXFGLKLDRI
HELM: PEPTIDE1{[CCCCCC(=O)[*:2]].[O=C(C1CCN([*:1])CC1)[*:2]].F.G.L.K.L.D.R.I.[am]}$$$$V2.0
SMILES: CCCCCC(=O)N1CCC(C(=O)N[C@@H](Cc2ccccc2)C(=O)NCC(=O)N[C@@H](CC(C)C)C(=O)N[C@@H](CCCCN)C(=O)N[C@@H](CC(C)C)C(=O)N[C@@H](CC(=O)O)C(=O)N[C@@H](CCCNC(=N)N)C(=O)N[C@H](C(N)=O)[C@@H](C)CC)CC1

Target: T1, natriuretic peptide receptor-B
Test: cell-based or functional assay

Row | Binder | EC50 group, cGMP in GTM-3 cells [µM]
1 | Octanoyl-[Sni]F[dL]L[Pro(trans-4-NH2)][NMeL]VRI-NH2 [JAL-1404] | ≤ 5
2 | Octanoyl-[Sni]F[dL]L[Hyp][NMeL]VRI-NH2 [JAL-1399] | ≤ 5
3 | B1 | ≤ 15
4 | Octanoyl-[Sni]F[dDap(Me2)]L[Hyp][NMeL]VRI-NH2 [JAL-1402] | ≤ 5
5 | Octanoyl-[dA]F[dR]L[Hyp]PDRI-NH2 [JAL-1387] | ≤ 15
6 | Octanoyl-[dA]F[dL]L[Hyp][Oic]DRI-NH2 [JAL-1386] | ≤ 5
7 | [Tyr(3-I)][Aoc(2)]AFRL[Hyp][NMeL]DRI-NH2 (also: lower-case ala, arg: meaning not given here) [JAL-1430] | ≤ 1
8 | Octanoyl-[Sni]F[dL]L[Hyp][NMeL]VRI-NH2 [JAL-1398] | ≤ 1
9 | Ac-[Tyr(3-I)][GABA][Aoc(2)]AFRL[Hyp][NMeL]DRI-NH2 (also: lower-case ala, arg: meaning not given here) [JAL-1432] | ≤ 15
10 | [Tyr(3-I)][GABA][Aoc(2)]AFRL[Hyp][NMeL]DRI-NH2 (also: lower-case ala, arg: meaning not given here) [JAL-1431] | ≤ 15
11 | B2 | ≤ 15
12 | Octanoyl-[dA]F[dR]L[Hyp][Thz]DRI-NH2 [JAL-1395] | ≤ 15
13 | Octanoyl-[dA]F[dL]L[Hyp][NMeL]DR[Aib]-NH2 [JAL-1413] | ≤ 5
14 | Octanoyl-[dA]F[Apc(Ae)]A[dE]L[Hyp][NMeL]DRI-NH2 [JAL-1408] | ≤ 5
15 | Octanoyl-AFLL[Hyp][NMeL]DPI-NH2 (also: lower-case ala, leu: meaning not given here) [JAL-1418] | ≤ 5
16 | Octanoyl-AFLL[Hyp][NMeL][Gly(cPr)]RI-NH2 (also: lower-case ala, leu: meaning not given here) [JAL-1424] | ≤ 15
17 | Octanoyl-AFLL[Hyp][NMeL]D[NMeR]I-NH2 (also: lower-case ala, leu: meaning not given here) [JAL-1417] | ≤ 1

Row | Binder | EC50 group, cGMP in GTM-3 cells [µM]
18 | Octanoyl-AFLL[Hyp][NMeL]DR[ξαMeL]-NH2 (also: lower-case ala, leu: meaning not given here) [JAL-1414] | ≤ 1
19 | Nbt-[Sni]F[dL]L[Hyp][NMeL]DRI-NH2 [JAL-1383] | ≤ 5
20 | Octanoyl-[dA]F[Apc(Me)]M[dE]L[Hyp][NMeL]DRI-NH2 [JAL-1406] | ≤ 1
21 | Octanoyl-[Sni]F[dDap(Me2)]L[Pro(trans-4-NH2)][NMeL]VRI-NH2 [JAL-1403] | ≤ 1
22 | Octanoyl-[dA]F[dR]L[Hyp][Eat]DRI-NH2 [JAL-1394] | ≤ 15
23 | B3 | ≤ 1
24 | Octanoyl-[Sni]F[dL]L[Pro(trans-4-NH2)][NMeL]VRI-NH2 [JAL-1401] | ≤ 1
25 | B4 | ≤ 15
26 | Octanoyl-[dA]F[dR]L[Hyp][Aze]DRI-NH2 [JAL-1393] | ≤ 15
27 | Octanoyl-[dA]F[dR]L[Hyp][Tic]DRI-NH2 [JAL-1396] | ≤ 5
28 | Octanoyl-AFLL[Hyp][NMeL]DR[Deg]-NH2 (also: lower-case ala, leu: meaning not given here) [JAL-1416] | ≤ 1
29 | Octanoyl-[Sni]F[dDap(Me2)]L[Pro(trans-4-NH2)][NMeL]VRI-NH2 [JAL-1405] | ≤ 1
30 | Octanoyl-[Sni]F[dDap(Me2)]L[Hyp][NMeL]VRI-NH2 [JAL-1400] | ≤ 15
31 | Octanoyl-AFLL[Hyp][NMeL][Tle]RI-NH2 (also: lower-case ala, leu: meaning not given here) [JAL-1420] | ≤ 15
32 | Octanoyl-AFLL[Hyp][NMeL][Chg]RI-NH2 (also: lower-case ala, leu: meaning not given here) [JAL-1421] | ≤ 15
33 | Octanoyl-[dA]F[Apc(Et)]E[dT]L[Hyp][NMeL]DRI-NH2 [JAL-1407] | ≤ 1
